# Measured values published in US20260209386A1 (MYTHIC THERAPEUTICS, published 2026).
# T1: Human PTK7 Protein, His Tag, Acro Biosystems (human, UniProt Q13308 31-704)
# T1 construct: Bought recombinant protein; also called CCK4; not shown: His tag
# T1 sequence: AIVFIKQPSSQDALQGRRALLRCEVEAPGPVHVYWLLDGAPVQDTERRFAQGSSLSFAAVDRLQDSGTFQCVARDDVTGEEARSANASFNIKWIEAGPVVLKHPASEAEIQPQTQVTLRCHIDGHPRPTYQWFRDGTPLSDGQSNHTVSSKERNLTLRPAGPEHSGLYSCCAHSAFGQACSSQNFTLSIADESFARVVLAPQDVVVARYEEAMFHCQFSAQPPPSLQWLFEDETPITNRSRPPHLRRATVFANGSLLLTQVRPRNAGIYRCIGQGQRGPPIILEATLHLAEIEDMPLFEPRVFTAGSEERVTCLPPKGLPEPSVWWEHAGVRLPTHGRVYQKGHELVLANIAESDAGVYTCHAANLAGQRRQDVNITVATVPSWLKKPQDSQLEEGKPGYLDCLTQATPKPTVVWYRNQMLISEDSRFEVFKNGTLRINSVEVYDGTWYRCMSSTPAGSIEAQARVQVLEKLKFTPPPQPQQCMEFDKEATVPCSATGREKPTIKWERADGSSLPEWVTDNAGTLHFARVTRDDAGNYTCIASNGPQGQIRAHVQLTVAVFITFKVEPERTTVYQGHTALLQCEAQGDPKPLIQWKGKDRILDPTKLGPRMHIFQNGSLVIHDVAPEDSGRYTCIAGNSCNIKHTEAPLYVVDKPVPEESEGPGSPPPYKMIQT
# Target: T1, Human PTK7 Protein, His Tag, Acro …
# Assay: BLI (Octet), antibody on anti-human Fc sensor, 50 nM PTK7 at pH 7.4, dissociation at pH 7.4 or 5.4; 2 = substantially similar binding relative to parent
row,Binder,binding result
1,"MYT10906 (antibody, V domains shown, MYT9345 variant, His at VH pos 61 (H2 12)) VH: EVQLVESGGGLVQPGGSLRLSCTASGFSLSNYVMNWVRQAPGKGLEWVGIIDSSGSTYYAHWAKGRFTISRDTSKNTVYLQMNSLRAEDTAVYFCARGLYLWGQGTLVTVSS VL: EIVMTQSPSTLSASVGDRVIITCQSSQSVYNNNLLAWYQQKPGKAPKLLIYYTSNLASGVPSRFSGSGSGAEFTLTISSLQPDDFATYYCQGGYNGNIYAFGQGTKLTVL",binds
2,"MYT10915 (antibody, V domains shown, MYT9345 variant, His at VH pos 100 (H3 05)) VH: EVQLVESGGGLVQPGGSLRLSCTASGFSLSNYVMNWVRQAPGKGLEWVGIIDSSGSTYYASWAKGRFTISRDTSKNTVYLQMNSLRAEDTAVYFCARGLHLWGQGTLVTVSS VL: EIVMTQSPSTLSASVGDRVIITCQSSQSVYNNNLLAWYQQKPGKAPKLLIYYTSNLASGVPSRFSGSGSGAEFTLTISSLQPDDFATYYCQGGYNGNIYAFGQGTKLTVL",binds
3,"MYT10929 (antibody, V domains shown, MYT9345 variant, His at VL pos 34 (L1 11)) VH: EVQLVESGGGLVQPGGSLRLSCTASGFSLSNYVMNWVRQAPGKGLEWVGIIDSSGSTYYASWAKGRFTISRDTSKNTVYLQMNSLRAEDTAVYFCARGLYLWGQGTLVTVSS VL: EIVMTQSPSTLSASVGDRVIITCQSSQSVYNNNHLAWYQQKPGKAPKLLIYYTSNLASGVPSRFSGSGSGAEFTLTISSLQPDDFATYYCQGGYNGNIYAFGQGTKLTVL",binds
4,"MYT10933 (antibody, V domains shown, MYT9345 variant, His at VL pos 53 (L2 02)) VH: EVQLVESGGGLVQPGGSLRLSCTASGFSLSNYVMNWVRQAPGKGLEWVGIIDSSGSTYYASWAKGRFTISRDTSKNTVYLQMNSLRAEDTAVYFCARGLYLWGQGTLVTVSS VL: EIVMTQSPSTLSASVGDRVIITCQSSQSVYNNNLLAWYQQKPGKAPKLLIYYHSNLASGVPSRFSGSGSGAEFTLTISSLQPDDFATYYCQGGYNGNIYAFGQGTKLTVL",binds
5,"MYT10908 (antibody, V domains shown, MYT9345 variant, His at VH pos 63 (H2 14)) VH: EVQLVESGGGLVQPGGSLRLSCTASGFSLSNYVMNWVRQAPGKGLEWVGIIDSSGSTYYASWHKGRFTISRDTSKNTVYLQMNSLRAEDTAVYFCARGLYLWGQGTLVTVSS VL: EIVMTQSPSTLSASVGDRVIITCQSSQSVYNNNLLAWYQQKPGKAPKLLIYYTSNLASGVPSRFSGSGSGAEFTLTISSLQPDDFATYYCQGGYNGNIYAFGQGTKLTVL",binds
6,"MYT10924 (antibody, V domains shown, MYT9345 variant, His at VL pos 29 (L1 06)) VH: EVQLVESGGGLVQPGGSLRLSCTASGFSLSNYVMNWVRQAPGKGLEWVGIIDSSGSTYYASWAKGRFTISRDTSKNTVYLQMNSLRAEDTAVYFCARGLYLWGQGTLVTVSS VL: EIVMTQSPSTLSASVGDRVIITCQSSQSHYNNNLLAWYQQKPGKAPKLLIYYTSNLASGVPSRFSGSGSGAEFTLTISSLQPDDFATYYCQGGYNGNIYAFGQGTKLTVL",binds
7,"MYT10922 (antibody, V domains shown, MYT9345 variant, His at VL pos 27 (L1 04)) VH: EVQLVESGGGLVQPGGSLRLSCTASGFSLSNYVMNWVRQAPGKGLEWVGIIDSSGSTYYASWAKGRFTISRDTSKNTVYLQMNSLRAEDTAVYFCARGLYLWGQGTLVTVSS VL: EIVMTQSPSTLSASVGDRVIITCQSSHSVYNNNLLAWYQQKPGKAPKLLIYYTSNLASGVPSRFSGSGSGAEFTLTISSLQPDDFATYYCQGGYNGNIYAFGQGTKLTVL",binds
8,"MYT10909 (antibody, V domains shown, MYT9345 variant, His at VH pos 64 (H2 15)) VH: EVQLVESGGGLVQPGGSLRLSCTASGFSLSNYVMNWVRQAPGKGLEWVGIIDSSGSTYYASWAHGRFTISRDTSKNTVYLQMNSLRAEDTAVYFCARGLYLWGQGTLVTVSS VL: EIVMTQSPSTLSASVGDRVIITCQSSQSVYNNNLLAWYQQKPGKAPKLLIYYTSNLASGVPSRFSGSGSGAEFTLTISSLQPDDFATYYCQGGYNGNIYAFGQGTKLTVL",binds
9,"MYT10921 (antibody, V domains shown, MYT9345 variant, His at VL pos 26 (L1 03)) VH: EVQLVESGGGLVQPGGSLRLSCTASGFSLSNYVMNWVRQAPGKGLEWVGIIDSSGSTYYASWAKGRFTISRDTSKNTVYLQMNSLRAEDTAVYFCARGLYLWGQGTLVTVSS VL: EIVMTQSPSTLSASVGDRVIITCQSHQSVYNNNLLAWYQQKPGKAPKLLIYYTSNLASGVPSRFSGSGSGAEFTLTISSLQPDDFATYYCQGGYNGNIYAFGQGTKLTVL",binds
10,"MYT10914 (antibody, V domains shown, MYT9345 variant, His at VH pos 99 (H3 04)) VH: EVQLVESGGGLVQPGGSLRLSCTASGFSLSNYVMNWVRQAPGKGLEWVGIIDSSGSTYYASWAKGRFTISRDTSKNTVYLQMNSLRAEDTAVYFCARGHYLWGQGTLVTVSS VL: EIVMTQSPSTLSASVGDRVIITCQSSQSVYNNNLLAWYQQKPGKAPKLLIYYTSNLASGVPSRFSGSGSGAEFTLTISSLQPDDFATYYCQGGYNGNIYAFGQGTKLTVL",binds
11,"MYT10910 (antibody, V domains shown, MYT9345 variant, His at VH pos 65 (H2 16)) VH: EVQLVESGGGLVQPGGSLRLSCTASGFSLSNYVMNWVRQAPGKGLEWVGIIDSSGSTYYASWAKHRFTISRDTSKNTVYLQMNSLRAEDTAVYFCARGLYLWGQGTLVTVSS VL: EIVMTQSPSTLSASVGDRVIITCQSSQSVYNNNLLAWYQQKPGKAPKLLIYYTSNLASGVPSRFSGSGSGAEFTLTISSLQPDDFATYYCQGGYNGNIYAFGQGTKLTVL",binds
12,"MYT10932 (antibody, V domains shown, MYT9345 variant, His at VL pos 52 (L2 01)) VH: EVQLVESGGGLVQPGGSLRLSCTASGFSLSNYVMNWVRQAPGKGLEWVGIIDSSGSTYYASWAKGRFTISRDTSKNTVYLQMNSLRAEDTAVYFCARGLYLWGQGTLVTVSS VL: EIVMTQSPSTLSASVGDRVIITCQSSQSVYNNNLLAWYQQKPGKAPKLLIYHTSNLASGVPSRFSGSGSGAEFTLTISSLQPDDFATYYCQGGYNGNIYAFGQGTKLTVL",binds
13,"MYT10938 (antibody, V domains shown, MYT9345 variant, His at VL pos 58 (L2 07)) VH: EVQLVESGGGLVQPGGSLRLSCTASGFSLSNYVMNWVRQAPGKGLEWVGIIDSSGSTYYASWAKGRFTISRDTSKNTVYLQMNSLRAEDTAVYFCARGLYLWGQGTLVTVSS VL: EIVMTQSPSTLSASVGDRVIITCQSSQSVYNNNLLAWYQQKPGKAPKLLIYYTSNLAHGVPSRFSGSGSGAEFTLTISSLQPDDFATYYCQGGYNGNIYAFGQGTKLTVL",binds

# Now from value to binder:
row,binding result,Binder
1,binds,"MYT10931 (antibody, V domains shown, MYT9345 variant, His at VL pos 36 (L1 13)) VH: EVQLVESGGGLVQPGGSLRLSCTASGFSLSNYVMNWVRQAPGKGLEWVGIIDSSGSTYYASWAKGRFTISRDTSKNTVYLQMNSLRAEDTAVYFCARGLYLWGQGTLVTVSS VL: EIVMTQSPSTLSASVGDRVIITCQSSQSVYNNNLLHWYQQKPGKAPKLLIYYTSNLASGVPSRFSGSGSGAEFTLTISSLQPDDFATYYCQGGYNGNIYAFGQGTKLTVL"
2,binds,"MYT10912 (antibody, V domains shown, MYT9345 variant, His at VH pos 97 (H3 02)) VH: EVQLVESGGGLVQPGGSLRLSCTASGFSLSNYVMNWVRQAPGKGLEWVGIIDSSGSTYYASWAKGRFTISRDTSKNTVYLQMNSLRAEDTAVYFCAHGLYLWGQGTLVTVSS VL: EIVMTQSPSTLSASVGDRVIITCQSSQSVYNNNLLAWYQQKPGKAPKLLIYYTSNLASGVPSRFSGSGSGAEFTLTISSLQPDDFATYYCQGGYNGNIYAFGQGTKLTVL"
3,binds,"MYT10934 (antibody, V domains shown, MYT9345 variant, His at VL pos 54 (L2 03)) VH: EVQLVESGGGLVQPGGSLRLSCTASGFSLSNYVMNWVRQAPGKGLEWVGIIDSSGSTYYASWAKGRFTISRDTSKNTVYLQMNSLRAEDTAVYFCARGLYLWGQGTLVTVSS VL: EIVMTQSPSTLSASVGDRVIITCQSSQSVYNNNLLAWYQQKPGKAPKLLIYYTHNLASGVPSRFSGSGSGAEFTLTISSLQPDDFATYYCQGGYNGNIYAFGQGTKLTVL"
4,binds,"MYT10923 (antibody, V domains shown, MYT9345 variant, His at VL pos 28 (L1 05)) VH: EVQLVESGGGLVQPGGSLRLSCTASGFSLSNYVMNWVRQAPGKGLEWVGIIDSSGSTYYASWAKGRFTISRDTSKNTVYLQMNSLRAEDTAVYFCARGLYLWGQGTLVTVSS VL: EIVMTQSPSTLSASVGDRVIITCQSSQHVYNNNLLAWYQQKPGKAPKLLIYYTSNLASGVPSRFSGSGSGAEFTLTISSLQPDDFATYYCQGGYNGNIYAFGQGTKLTVL"
5,binds,"MYT10919 (antibody, V domains shown, MYT9345 variant, His at VL pos 24 (L1 01)) VH: EVQLVESGGGLVQPGGSLRLSCTASGFSLSNYVMNWVRQAPGKGLEWVGIIDSSGSTYYASWAKGRFTISRDTSKNTVYLQMNSLRAEDTAVYFCARGLYLWGQGTLVTVSS VL: EIVMTQSPSTLSASVGDRVIITCHSSQSVYNNNLLAWYQQKPGKAPKLLIYYTSNLASGVPSRFSGSGSGAEFTLTISSLQPDDFATYYCQGGYNGNIYAFGQGTKLTVL"
6,binds,"MYT10907 (antibody, V domains shown, MYT9345 variant, His at VH pos 62 (H2 13)) VH: EVQLVESGGGLVQPGGSLRLSCTASGFSLSNYVMNWVRQAPGKGLEWVGIIDSSGSTYYASHAKGRFTISRDTSKNTVYLQMNSLRAEDTAVYFCARGLYLWGQGTLVTVSS VL: EIVMTQSPSTLSASVGDRVIITCQSSQSVYNNNLLAWYQQKPGKAPKLLIYYTSNLASGVPSRFSGSGSGAEFTLTISSLQPDDFATYYCQGGYNGNIYAFGQGTKLTVL"
